From PMC9631961

Target: Vsg-GFP fusion protein (D. melanogaster Vsg, transiently expressed in U2OS cells) (Drosophila melanogaster)
Test: immunostaining of cells or tissue

Substance “TcdA1 (TcA subunit of the Photorhabdus luminescens Tc toxin pTc) (from UniProt Q9RN43 1-2516) (natural protein)” has a percent of TcdA1-bound cells that are GFP positive of 96%.
